B1: wild-type FlaI, Sulfolobus acidocaldarius, Q4J9L0 1-513 (enzyme)
chain: MSFVEDYLTKLQERPTIIENPNILKGSKIFNAIYRVDDFVYIHIQSIKSEDGYNQYNVIEPPRPTHDEMEEIEEKFALSIGDKEPPEDTKEKEKLIRSILDKILLRMRLSVPKEYVIYHFIRDKLYTGSLEPLIRDPYIEDISIPGLGHVYIVHKVFGPMRTSIKFENYEELDNLIVSLSEKSYRPVSHNRPVVDASLPDGSRVNFVYGVDISRRGSNLTVRKFSRVPTSITQLIMFGTLSSMMAAYIWTMLDEGMNLFVCGETASGKTTTLNAITAFIPPNLKIVTIEDTPELTVPHSNWVAEVTRETGGEGTIKLFDLLKAALRQRPNYILVGEIRDKEGNVAFQAMQTGHSVMATFHAANITTLIQRLTGYPIEVPKSYINNLNIALFQTALYDKKGNLIRRVVEVDEIIDIDPVTNDVVYIPAFTYDSVQDKMLFAGKGSSYLIENKIAVKRGIDRRNIGLLYDELQMRSRFLNLLVEKKIFNYYDVWDYILRARQMGLEEAIKYVSNI
B2: FlaI Walker B mutant (FlaI^E336A), full-length, Sulfolobus acidocaldarius (enzyme, UniProt Q4J9L0 1-513, looked up)
chain: MSFVEDYLTKLQERPTIIENPNILKGSKIFNAIYRVDDFVYIHIQSIKSEDGYNQYNVIEPPRPTHDEMEEIEEKFALSIGDKEPPEDTKEKEKLIRSILDKILLRMRLSVPKEYVIYHFIRDKLYTGSLEPLIRDPYIEDISIPGLGHVYIVHKVFGPMRTSIKFENYEELDNLIVSLSEKSYRPVSHNRPVVDASLPDGSRVNFVYGVDISRRGSNLTVRKFSRVPTSITQLIMFGTLSSMMAAYIWTMLDEGMNLFVCGETASGKTTTLNAITAFIPPNLKIVTIEDTPELTVPHSNWVAEVTRETGGEGTIKLFDLLKAALRQRPNYILVGAIRDKEGNVAFQAMQTGHSVMATFHAANITTLIQRLTGYPIEVPKSYINNLNIALFQTALYDKKGNLIRRVVEVDEIIDIDPVTNDVVYIPAFTYDSVQDKMLFAGKGSSYLIENKIAVKRGIDRRNIGLLYDELQMRSRFLNLLVEKKIFNYYDVWDYILRARQMGLEEAIKYVSNI
B3: FlaI^N190E/E336A interface mutant in the Walker B background (enzyme, Sulfolobus acidocaldarius, UniProt Q4J9L0 1-513, looked up)
chain: MSFVEDYLTKLQERPTIIENPNILKGSKIFNAIYRVDDFVYIHIQSIKSEDGYNQYNVIEPPRPTHDEMEEIEEKFALSIGDKEPPEDTKEKEKLIRSILDKILLRMRLSVPKEYVIYHFIRDKLYTGSLEPLIRDPYIEDISIPGLGHVYIVHKVFGPMRTSIKFENYEELDNLIVSLSEKSYRPVSHERPVVDASLPDGSRVNFVYGVDISRRGSNLTVRKFSRVPTSITQLIMFGTLSSMMAAYIWTMLDEGMNLFVCGETASGKTTTLNAITAFIPPNLKIVTIEDTPELTVPHSNWVAEVTRETGGEGTIKLFDLLKAALRQRPNYILVGAIRDKEGNVAFQAMQTGHSVMATFHAANITTLIQRLTGYPIEVPKSYINNLNIALFQTALYDKKGNLIRRVVEVDEIIDIDPVTNDVVYIPAFTYDSVQDKMLFAGKGSSYLIENKIAVKRGIDRRNIGLLYDELQMRSRFLNLLVEKKIFNYYDVWDYILRARQMGLEEAIKYVSNI
B4: FlaI^R307K/E336A interface mutant in the Walker B background (enzyme, Sulfolobus acidocaldarius, UniProt Q4J9L0 1-513, looked up)
chain: MSFVEDYLTKLQERPTIIENPNILKGSKIFNAIYRVDDFVYIHIQSIKSEDGYNQYNVIEPPRPTHDEMEEIEEKFALSIGDKEPPEDTKEKEKLIRSILDKILLRMRLSVPKEYVIYHFIRDKLYTGSLEPLIRDPYIEDISIPGLGHVYIVHKVFGPMRTSIKFENYEELDNLIVSLSEKSYRPVSHNRPVVDASLPDGSRVNFVYGVDISRRGSNLTVRKFSRVPTSITQLIMFGTLSSMMAAYIWTMLDEGMNLFVCGETASGKTTTLNAITAFIPPNLKIVTIEDTPELTVPHSNWVAEVTKETGGEGTIKLFDLLKAALRQRPNYILVGAIRDKEGNVAFQAMQTGHSVMATFHAANITTLIQRLTGYPIEVPKSYINNLNIALFQTALYDKKGNLIRRVVEVDEIIDIDPVTNDVVYIPAFTYDSVQDKMLFAGKGSSYLIENKIAVKRGIDRRNIGLLYDELQMRSRFLNLLVEKKIFNYYDVWDYILRARQMGLEEAIKYVSNI

What was measured:
[1] = target: T1, wild-type FlaI, Sulfolobus acidocaldarius (Sulfolobus acidocaldarius), Q4J9L0; experiment: crystal structure; details: remark: other sources report otherwise
T1 chain: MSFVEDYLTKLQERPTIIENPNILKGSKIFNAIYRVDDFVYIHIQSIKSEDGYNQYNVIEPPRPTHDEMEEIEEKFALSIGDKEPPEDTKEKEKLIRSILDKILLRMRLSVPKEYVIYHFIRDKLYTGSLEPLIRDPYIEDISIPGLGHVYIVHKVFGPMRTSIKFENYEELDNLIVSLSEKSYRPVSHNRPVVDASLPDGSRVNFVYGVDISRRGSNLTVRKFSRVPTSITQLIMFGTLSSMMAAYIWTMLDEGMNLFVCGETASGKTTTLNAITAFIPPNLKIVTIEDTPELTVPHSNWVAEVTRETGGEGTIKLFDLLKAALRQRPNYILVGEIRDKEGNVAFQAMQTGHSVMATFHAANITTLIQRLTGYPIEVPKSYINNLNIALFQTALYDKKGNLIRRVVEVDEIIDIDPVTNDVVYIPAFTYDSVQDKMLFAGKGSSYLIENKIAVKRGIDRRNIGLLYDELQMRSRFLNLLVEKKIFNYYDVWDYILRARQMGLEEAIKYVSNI

[2] = target: the molecule itself; experiment: crystal structure
[3] = target: the molecule itself; experiment: SEC

Binder	binding result [3]	also measured
B1	–	stoichiometry N [1]: 6
B2	–	stoichiometry N [2]: 6
B3	binds	–
B4	binds	–
